Reference: patent US20220048967A1 (published 2022)
Numbering of substitutions follows the chain as printed. Numbered stars: 1 amine (or outer) side, 2 acyl side, 3 side chain; on linkers, the order of the positions; unused ones are H or OH. Square brackets hold non-standard residues; d marks the D form. Side chains are listed from the residue outwards. Ends that are not written are not given here. * marks the point of attachment. C20 diacid = O=C(O)CCCCCCCCCCCCCCCCCCC(=O)*; αMePhe(2-F) = C[C@](N)(Cc1ccccc1F)C(=O)O; γGlu = O=C(O)[C@H](CCC(=O)[*:2])N[*:1]; αMeF = C[C@](N)(Cc1ccccc1)C(=O)O; AEEA = NCCOCCOCC(=O)O; Aib = CC(C)(N)C(=O)O

T1: human GIP receptor (human, UniProt P48546 22-466)
T1 sequence (looked up): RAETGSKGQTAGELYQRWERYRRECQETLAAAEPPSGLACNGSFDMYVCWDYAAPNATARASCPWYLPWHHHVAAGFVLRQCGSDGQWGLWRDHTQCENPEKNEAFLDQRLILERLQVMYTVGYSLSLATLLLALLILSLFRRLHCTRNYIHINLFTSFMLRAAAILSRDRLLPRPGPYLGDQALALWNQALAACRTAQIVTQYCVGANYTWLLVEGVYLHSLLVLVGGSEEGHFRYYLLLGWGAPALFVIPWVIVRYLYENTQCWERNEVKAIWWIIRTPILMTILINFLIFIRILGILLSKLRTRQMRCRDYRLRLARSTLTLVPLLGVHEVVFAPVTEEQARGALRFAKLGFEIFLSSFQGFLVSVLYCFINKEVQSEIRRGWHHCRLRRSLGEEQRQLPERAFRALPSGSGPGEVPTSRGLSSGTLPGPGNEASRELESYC

B1: Example 91 (peptide)
peptide: YXXGTFTSDYSILLDKKAQXAFIEYLIEGGPSSGAPPPS
modifications: Aib2; γ-Glu3; K17((2-[2-(2-Amino-ethoxy)-ethoxy]-acetyl)2-(γ-Glu)-CO-(CH2)18-CO2H); Aib20; C-terminal NH2
B2: Example 94 (peptide)
peptide: YXEGTXTSDYSILLDKIAQXKFIEYLIEGG
modifications: Aib2; αMeF6; Aib20; K21((2-[2-(2-Amino-ethoxy)-ethoxy]-acetyl)2-(γ-Glu)-CO-(CH2)18-CO2H); C-terminal NH2
B3: Example 92 (peptide)
peptide: Y[Aib]EGT[αMeF]TSDK([AEEA-AEEA-γGlu-C20 diacid])SILLDKIAQ[Aib]AFIEYLIEGG-NH2
modifications: N-terminus assumed
SMILES: CC[C@H](C)[C@H](NC(=O)[C@H](CCCCN)NC(=O)[C@H](CC(=O)O)NC(=O)[C@H](CC(C)C)NC(=O)[C@H](CC(C)C)NC(=O)[C@@H](NC(=O)[C@H](CO)NC(=O)[C@H](CCCCNC(=O)COCCOCCNC(=O)COCCOCCNC(=O)CC[C@H](NC(=O)CCCCCCCCCCCCCCCCCCC(=O)O)C(=O)O)NC(=O)[C@H](CC(=O)O)NC(=O)[C@H](CO)NC(=O)[C@@H](NC(=O)[C@](C)(Cc1ccccc1)NC(=O)[C@@H](NC(=O)CNC(=O)[C@H](CCC(=O)O)NC(=O)C(C)(C)NC(=O)[C@@H](N)Cc1ccc(O)cc1)[C@@H](C)O)[C@@H](C)O)[C@@H](C)CC)C(=O)N[C@@H](C)C(=O)N[C@@H](CCC(N)=O)C(=O)NC(C)(C)C(=O)N[C@@H](C)C(=O)N[C@@H](Cc1ccccc1)C(=O)N[C@H](C(=O)N[C@@H](CCC(=O)O)C(=O)N[C@@H](Cc1ccc(O)cc1)C(=O)N[C@@H](CC(C)C)C(=O)N[C@H](C(=O)N[C@@H](CCC(=O)O)C(=O)NCC(=O)NCC(N)=O)[C@@H](C)CC)[C@@H](C)CC
B4: Example 101 (peptide)
peptide: Y[Aib]EGT[αMePhe(2-F)]TSDYSI[Aib]LDEK([AEEA-AEEA-γGlu-C20 diacid])AQ[Aib]AFIEYLIEGG-NH2
modifications: N-terminus assumed
SMILES: CC[C@H](C)[C@H](NC(=O)[C@H](CC(C)C)NC(=O)[C@H](Cc1ccc(O)cc1)NC(=O)[C@H](CCC(=O)O)NC(=O)[C@@H](NC(=O)[C@H](Cc1ccccc1)NC(=O)[C@H](C)NC(=O)C(C)(C)NC(=O)[C@H](CCC(N)=O)NC(=O)[C@H](C)NC(=O)[C@H](CCCCNC(=O)COCCOCCNC(=O)COCCOCCNC(=O)CC[C@H](NC(=O)CCCCCCCCCCCCCCCCCCC(=O)O)C(=O)O)NC(=O)[C@H](CCC(=O)O)NC(=O)[C@H](CC(=O)O)NC(=O)[C@H](CC(C)C)NC(=O)C(C)(C)NC(=O)[C@@H](NC(=O)[C@H](CO)NC(=O)[C@H](Cc1ccc(O)cc1)NC(=O)[C@H](CC(=O)O)NC(=O)[C@H](CO)NC(=O)[C@@H](NC(=O)[C@](C)(Cc1ccccc1F)NC(=O)[C@@H](NC(=O)CNC(=O)[C@H](CCC(=O)O)NC(=O)C(C)(C)NC(=O)[C@@H](N)Cc1ccc(O)cc1)[C@@H](C)O)[C@@H](C)O)[C@@H](C)CC)[C@@H](C)CC)C(=O)N[C@@H](CCC(=O)O)C(=O)NCC(=O)NCC(N)=O
B5: Example 95 (peptide)
peptide: B2 peptide with K21A, E28K
modifications: Aib2; αMeF6; Aib20; K28((2-[2-(2-Amino-ethoxy)-ethoxy]-acetyl)2-(γ-Glu)-CO-(CH2)18-CO2H); C-terminal NH2
B6: Example 102 (peptide)
peptide: Y[Aib]EGT[αMeF]TSDYSI[Aib]LDEK([AEEA-AEEA-γGlu-C20 diacid])AQ[Aib]AFIEYLIEGG-NH2
modifications: N-terminus assumed
SMILES: CC[C@H](C)[C@H](NC(=O)[C@H](CC(C)C)NC(=O)[C@H](Cc1ccc(O)cc1)NC(=O)[C@H](CCC(=O)O)NC(=O)[C@@H](NC(=O)[C@H](Cc1ccccc1)NC(=O)[C@H](C)NC(=O)C(C)(C)NC(=O)[C@H](CCC(N)=O)NC(=O)[C@H](C)NC(=O)[C@H](CCCCNC(=O)COCCOCCNC(=O)COCCOCCNC(=O)CC[C@H](NC(=O)CCCCCCCCCCCCCCCCCCC(=O)O)C(=O)O)NC(=O)[C@H](CCC(=O)O)NC(=O)[C@H](CC(=O)O)NC(=O)[C@H](CC(C)C)NC(=O)C(C)(C)NC(=O)[C@@H](NC(=O)[C@H](CO)NC(=O)[C@H](Cc1ccc(O)cc1)NC(=O)[C@H](CC(=O)O)NC(=O)[C@H](CO)NC(=O)[C@@H](NC(=O)[C@](C)(Cc1ccccc1)NC(=O)[C@@H](NC(=O)CNC(=O)[C@H](CCC(=O)O)NC(=O)C(C)(C)NC(=O)[C@@H](N)Cc1ccc(O)cc1)[C@@H](C)O)[C@@H](C)O)[C@@H](C)CC)[C@@H](C)CC)C(=O)N[C@@H](CCC(=O)O)C(=O)NCC(=O)NCC(N)=O
B7: Example 93 (peptide)
peptide: Y[Aib]EGT[αMeF]TSDYSILK([AEEA-AEEA-γGlu-C20 diacid])DKIAQ[Aib]AFIEYLIEGG-NH2
modifications: N-terminus assumed
SMILES: CC[C@H](C)[C@H](NC(=O)[C@H](CCCCN)NC(=O)[C@H](CC(=O)O)NC(=O)[C@H](CCCCNC(=O)COCCOCCNC(=O)COCCOCCNC(=O)CC[C@H](NC(=O)CCCCCCCCCCCCCCCCCCC(=O)O)C(=O)O)NC(=O)[C@H](CC(C)C)NC(=O)[C@@H](NC(=O)[C@H](CO)NC(=O)[C@H](Cc1ccc(O)cc1)NC(=O)[C@H](CC(=O)O)NC(=O)[C@H](CO)NC(=O)[C@@H](NC(=O)[C@](C)(Cc1ccccc1)NC(=O)[C@@H](NC(=O)CNC(=O)[C@H](CCC(=O)O)NC(=O)C(C)(C)NC(=O)[C@@H](N)Cc1ccc(O)cc1)[C@@H](C)O)[C@@H](C)O)[C@@H](C)CC)C(=O)N[C@@H](C)C(=O)N[C@@H](CCC(N)=O)C(=O)NC(C)(C)C(=O)N[C@@H](C)C(=O)N[C@@H](Cc1ccccc1)C(=O)N[C@H](C(=O)N[C@@H](CCC(=O)O)C(=O)N[C@@H](Cc1ccc(O)cc1)C(=O)N[C@@H](CC(C)C)C(=O)N[C@H](C(=O)N[C@@H](CCC(=O)O)C(=O)NCC(=O)NCC(N)=O)[C@@H](C)CC)[C@@H](C)CC
B8: Example 98 (peptide)
peptide: B2 peptide with I17K, K21A
modifications: Aib2; αMeF6; K17((2-[2-(2-Amino-ethoxy)-ethoxy]-acetyl)2-(γ-Glu)-CO-(CH2)18-CO2H); Aib20; C-terminal NH2
B9: Example 90 (peptide)
peptide: Y[Aib]NGTFTSDYSILLDKK([AEEA-AEEA-γGlu-C20 diacid])AQ[Aib]AFIEYLIEGGPSSGAPPPS-NH2
modifications: N-terminus assumed
SMILES: CC[C@H](C)[C@H](NC(=O)[C@H](CC(C)C)NC(=O)[C@H](Cc1ccc(O)cc1)NC(=O)[C@H](CCC(=O)O)NC(=O)[C@@H](NC(=O)[C@H](Cc1ccccc1)NC(=O)[C@H](C)NC(=O)C(C)(C)NC(=O)[C@H](CCC(N)=O)NC(=O)[C@H](C)NC(=O)[C@H](CCCCNC(=O)COCCOCCNC(=O)COCCOCCNC(=O)CC[C@H](NC(=O)CCCCCCCCCCCCCCCCCCC(=O)O)C(=O)O)NC(=O)[C@H](CCCCN)NC(=O)[C@H](CC(=O)O)NC(=O)[C@H](CC(C)C)NC(=O)[C@H](CC(C)C)NC(=O)[C@@H](NC(=O)[C@H](CO)NC(=O)[C@H](Cc1ccc(O)cc1)NC(=O)[C@H](CC(=O)O)NC(=O)[C@H](CO)NC(=O)[C@@H](NC(=O)[C@H](Cc1ccccc1)NC(=O)[C@@H](NC(=O)CNC(=O)[C@H](CC(N)=O)NC(=O)C(C)(C)NC(=O)[C@@H](N)Cc1ccc(O)cc1)[C@@H](C)O)[C@@H](C)O)[C@@H](C)CC)[C@@H](C)CC)C(=O)N[C@@H](CCC(=O)O)C(=O)NCC(=O)NCC(=O)N1CCC[C@H]1C(=O)N[C@@H](CO)C(=O)N[C@@H](CO)C(=O)NCC(=O)N[C@@H](C)C(=O)N1CCC[C@H]1C(=O)N1CCC[C@H]1C(=O)N1CCC[C@H]1C(=O)N[C@@H](CO)C(N)=O
B10: Example 5 (peptide)
peptide: YXEGTXTSDVSIXLDXKAQXEFIXXLIEGGPSSGAPPPS
modifications: Aib2; αMeF(2F)6; αMeL13; Orn16; K17((2-[2-(2-Amino-ethoxy)-ethoxy]-acetyl)2-(γ-Glu)-CO-(CH2)16-CO2H); Aib20; D-Glu24; αMeY25; C-terminal NH2

Molecular target: T1, human GIP receptor
Experiment: cell-based or functional assay

Binder	hGIPR cAMP EC50 ratio	hGIPR cAMP Rel EC50
B1	0.0103	19.2 nM
B2	0.434	0.425 nM
B3	0.546	0.338 nM
B4	2.07	0.0704 nM
B5	0.145	1.17 nM
B6	0.983	0.178 nM
B7	0.956	0.185 nM
B8	2.43	0.0718 nM
B9	5.17	0.0361 nM
B10	6.27	0.0309 nM

Molecular target: human GLP-1 receptor (human, UniProt P43220 24-463)
Experiment: cell-based or functional assay

Binder	hGLP1R cAMP EC50 ratio	hGLP1R cAMP Rel EC50
B1	< 1.08e-05	> 5000 nM
B2	0.196	0.338 nM
B3	0.258	0.257 nM
B4	1.06	0.0579 nM
B5	0.0576	1.01 nM
B6	0.913	0.0628 nM
B7	0.498	0.115 nM
B8	0.384	0.157 nM
B9	0.11	0.532 nM
B10	2.69	0.0164 nM
